Tests used:
[1] = target: yeast surface-displayed DARPin 3G146 variant 2-G4 (G150S); experiment: flow cytometry on cells
[2] = target: yeast surface-displayed DARPin 3G146 variant 2-H3 (G237S); experiment: flow cytometry on cells

- fold improvement of apparent binding affinity over 3G146 [1]: 8 fold
- fold improvement of apparent binding affinity over 3G146 [2]: 28 fold
Substance: EGFP-His6 (from UniProt P42212 1-238) (natural protein)

— article doi:10.1101/2023.11.20.567881
